Source: the DeepSol protein solubility set

Assay: soluble on expression in E. coli; label from the status in PepcDB or PDB records
For “MGSDKIHHHHHHMQVVLRIDEKDTRTLQQQVFHQIRALILEGRLRSGDPVPASRELSQQLGVSRNTVLIAYEHLLSEGYLESRANVGTFVSSALPEMSMSTLTSPANDQPSEPSGQSPAPACMPLLEHSVISPNRKKDTVDFWVGRSDGSAFPAREWRRILDTKLRHAKGQLSEYHDPRGLREFRQALADHIGPTRGVLAKPEDVVCVGGSQDGLALIARAFSRTFRTFIHEDPCYLGARAVFSNFSYDTVAVPVDRDGLRVDLLPETGRSLLYVTPSHQYPTGVTLSLERRLQLLQWAERTDSIVIEDDYDGDFRYEGTPLTALRGLDRAGRVIYLGTFSKSFGPAIRIGYLVSTAELSDAFAMWKGILSNGQPWLEQAAMADFITGGSFRRHLRRIRSTYMARRDLLARELTTRIPGTSIHGMRGGMHISARLPKGICAETLQKAAAEHRIAIYRARDCGAWLSPSNTDFDDLLVLGYAAVSDRNIRKAVDVLAHAAEQQSG”, the “soluble on expression in E. coli” value was “not soluble”.
For “MGSDKIHHHHHHMITTARQLKDLIRNMSKKKSADAQILMRNYMMERFLERISLSEYKNQFILKGGMLVAAMVGLDARATMDLDATIKGTNVSVEDVEMIISQIISIPLDDGVSFRVKRISEIMEEADYPGVRVSMETKFDGVITPLKIDISTGDVITPREIKYKFNLMLEDRTIEVWAYNLETVLAEKLETVVSRNVTNTRMRDFYDIYILQKLYGEQLQKQVLWTALVATAKKRGTLDLIEAEDIREIFDEIESSPVMETLWKTYQKNYSYAADISWHAIVKSICALYGSILENMYNT”, the “soluble on expression in E. coli” value was “not soluble”.
With “MAHHHHHHMKPKIPFIIEIFSSFGDNYSTNYIEKEMNLDIMNVVKNYDLDTLVEENKEANGTPHVTVDDAVDQIMDRFYDCSVFHKIILLDVSILFERVE” the “soluble on expression in E. coli” value was “not soluble”.
In the case of “KKEEASSKSYRELIIEGLTALKERKGSSRPALKKFIKENYPIVGSASNFDLYFNNAIKKGVEAGDFEQPKGPAGAVKLAKKKSPEVKKEKEVS”, the “soluble on expression in E. coli” value is reported as “soluble”.
For “MSLSVKILFKNATVFPITSRPFKGDVLVSNGKVEKVGENIEDPDAEIVDLTGKFLFPGFVDAHSHIGLFEEGVGYYYSDGNEATDPVTPHVKALDGFNPQDPAIERALAGGVTSVMIVPGSANPVGGQGSVIKFRSIIVEECIVKDPAGLKMAFGENPKRVYGERKQTPSTRMGTAGVIRDYFTKVKNYMKKKELAQKEGKEFTETDLKMEVGEMVLRKKIPARMHAHRADDILTAIRIAEEFGFNLVIEHGTEAYKISKVLAEKKIPVVVGPLLTFRTKLELKDLTMETIAKLLKDGVLIALMCDHPVIPLEFATVQAATAMRYGAKEEDLLKILTVNPAKILGLEDRIGSIEPGKDADLVVWSGHPFDMKSVVERVYIDGVEVFRREGHHHHHH”, the “soluble on expression in E. coli” value was “soluble”.
In the case of “MTVDPASHITIPEADLARLRHCNHHDPHGFYGWHETEAGSVIRTRQVGATQVNLLIDDTSHVMTPIGDDIFAIDLGHRERADYRLEVTWPDQEPQVKADPYYFLPTVG”, the “soluble on expression in E. coli” value is reported as “not soluble”.
In the case of “MILGICGSPRKQATEHVLERALSMLEDDGLETEFFTVRGKNISPCRHCDYCLRNKECVLKDDMFPLYELLRRAAGIIIATPVYNGGVSAQIKAIMDRCRALGAEDYDSLRGKVGMGIAVGGDRCGGQEPALMQIHTFYILNGVIPVSGGSFGANLGACFWSRDTLEVLKRTHMDSKPSKRPWACLKGSWTLKDPEILFYSEFILEHHHHHH”, the “soluble on expression in E. coli” value is reported as “not soluble”.
In the case of “MARRILVVEAEAPIREMVCFVLEQNGFQPVEAEDYDSAVNQLNEPWPDLILLEWMLPGGSGIQFIKHLKRESMTRDIPVVMLTARGEEEDRVRGLETGADDYITKPFSPKELVARIKAVMRRISPMA”, the “soluble on expression in E. coli” value is reported as “soluble”.
For “MGHHHHHHSHVRSPQNQYPAELMRRFELYFQGPSSNKPRVIREVRADSVGKLVTVRGIVTRVSEVKPKMVVATYTCDQCGAETYQPIQSPTFMPLIMCPSQECQTNRSGGRLYLQTRGSRFIKFQEMKMQEHSDQVPVGNIPRSITVLVEGENTRIAQPGDHVSVTGIFLPILRTGFRQVVQGLLSETYLEAHRIVKMNKSEDDESGAGELTREELRQIAEEDFYEKLAASIAPEIYG”, the “soluble on expression in E. coli” value was “soluble”.
In the case of “MELDDFDPEDKEILSWDINDVKLPQNVKTTDWFQEWPDSYVKHIYSSDDRNAQRHLSSWAMRNTNNHNSRILKKSCLGVVVCSRDCSTEEGRKIYLRPAICDKARQKQQRKSCPNCNGPLKLIPCRGHGGFPVTNFWRHDGRFIFFQSKGEHDHPRPETKLEAEARRAMKKVHM”, the “soluble on expression in E. coli” value is reported as “soluble”.
